Test results published in patent US20070178531A1 (BIOCHECK, published 2007).
Changes are numbered by the printed parent chain.

What was measured:
Mouse Id1: Histidine [1] = target: T1, Mouse Id1: Histidine (mouse, UniProt P20067-2 1-148, limits assumed); test: ELISA, positive control (stated to be BCH-4/6-1) 0.25 µg/ml
T1 construct: Fusion protein made in E. coli from vector pGW07; also called m-Id1-His; not shown: His tag
T1 sequence (looked up): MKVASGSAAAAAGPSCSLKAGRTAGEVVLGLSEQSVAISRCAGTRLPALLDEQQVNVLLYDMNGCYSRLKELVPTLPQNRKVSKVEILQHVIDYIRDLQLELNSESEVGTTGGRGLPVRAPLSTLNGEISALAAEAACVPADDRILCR
Protocol: (§1) 1. Dispense 100 μL of antibody diluent, diluted rabbit monoclonal human Id3, and mouse/human Id3 hybridoma supernatants into appropriate wells. […] 2. Incubate at room temperature with mechanical shaking at 750 rpm for 90 minutes. [0165] 3. Remove the incubation mixture by flicking plate content into an appropriate waste container followed by rinsing the wells 5 times with distilled water. [0166] 4. Strike the wells sharply onto absorbent paper or paper towels to remove all residual water droplets. [0167] 5. Dispense 100 μL of 1:50,000 Goat Anti-Rabbit IgG-HRP Conjugate Reagent into each well. Gently mix for 5 seconds. [0168] 6. Incubate at room temperature with mechanical shaking at 750 rpm for 90 minutes. [0169] 7. Repeat procedures 3 and 4. [0170] 8. Dispense 100 μL of TMB Reagent into each well. Gently mix for 5 seconds. [0171] 9. Incubate at room temperature with mechanical shaking at 750 rpm for 20 minutes. […] 10. Add 100 μL of Stop Solution (1N HCl) into each well. [0173] 11. Gently mix for 10 seconds to ensure a complete mixing. [0174] 12. Read optical density at A450 nm.
(§2) The materials and method are the same as those described in Example 9 except the following.
(§3) Rabbit monoclonal anti-mouse Id3, hybridoma supernatant was used as the test antibody. Protein G purified, rabbit monoclonal anti-mouse/human Id3 antibody, BCH-4/6-1, 0.92 mg/ml in 0.25% BSA was used as positive controls.

Human Id3: Histidine [2] = target: T2, Human Id3: Histidine (human, UniProt Q02535 1-119 at identity 1.00)); test: as above
T2 construct: Fusion protein made in E. coli from vector pGW07; also called h-Id3: His; Human Id3 (coated wells); not shown: His tag
T2 chain: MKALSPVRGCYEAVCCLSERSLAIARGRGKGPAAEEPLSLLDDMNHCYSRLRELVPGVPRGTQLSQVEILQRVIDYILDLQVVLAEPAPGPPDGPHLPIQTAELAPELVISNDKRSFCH
Protocol: as §1, §2, §3

Mouse Id2: Histidine [3] = target: T3, Mouse Id2: Histidine (mouse, UniProt P41136 1-134, limits assumed); test: as above
T3 construct: Fusion protein made in E. coli from vector pGW07; also called m-Id2: His; not shown: His tag
T3 sequence (looked up): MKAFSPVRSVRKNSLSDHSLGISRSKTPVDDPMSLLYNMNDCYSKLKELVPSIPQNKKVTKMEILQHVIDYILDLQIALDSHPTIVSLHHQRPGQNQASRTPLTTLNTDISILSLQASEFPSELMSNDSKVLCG
Protocol: as §1, §2, §3

Human Id1: Histidine [4] = target: T4, Human Id1: Histidine (human, UniProt P41134 1-155, limits assumed); test: as above
T4 construct: Fusion protein made in E. coli from vector pGW07; also called h-Id1: his; not shown: His tag
T4 sequence (looked up): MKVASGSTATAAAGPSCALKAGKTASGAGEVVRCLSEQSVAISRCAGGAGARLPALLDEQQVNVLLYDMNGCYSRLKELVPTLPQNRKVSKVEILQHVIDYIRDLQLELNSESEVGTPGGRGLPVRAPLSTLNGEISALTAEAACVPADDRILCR
Protocol: as §1, §2, §3

Human Id2: Histidine [5] = target: T5, Human Id2: Histidine (human, UniProt Q02363 1-134, limits assumed); test: as above
T5 construct: Fusion protein made in E. coli from vector pGW07; also called h-Id2: His; not shown: His tag
T5 sequence (looked up): T3 sequence (looked up) with T60S, V131A
Protocol: as §1, §2, §3

Mouse Id3: Histidine [6] = target: T6, Mouse Id3: Histidine (mouse, UniProt P41133 1-119); test: as above
T6 construct: Fusion protein made in E. coli from vector pGW07; also called m-Id3: His; Mouse Id3 (coated wells); not shown: His tag
T6 sequence: T2 chain with G31S, A33S, A34T, A105T, N112K
Protocol: as §1, §2, §3

Mouse Id1: Histidine [7] = target: T1, Mouse Id1: Histidine; test: ELISA, Ab 0.050 µg/ml
Human Id3: Histidine [8] = target: T2, Human Id3: Histidine; test: ELISA, Ab 0.050 µg/ml
Mouse Id2: Histidine [9] = target: T3, Mouse Id2: Histidine; test: ELISA, Ab 0.050 µg/ml
Human Id1: Histidine [10] = target: T4, Human Id1: Histidine; test: ELISA, Ab 0.050 µg/ml
Human Id2: Histidine [11] = target: T5, Human Id2: Histidine; test: ELISA, Ab 0.050 µg/ml
Mouse Id3: Histidine [12] = target: T6, Mouse Id3: Histidine; test: ELISA, Ab 0.050 µg/ml
Mouse Id2: Histidine [13] = target: T3, Mouse Id2: Histidine; test: ELISA, Ab 0 µg/ml (blank)
Human Id1: Histidine [14] = target: T4, Human Id1: Histidine; test: ELISA, positive control (stated to be BCH-4/6-1) 0.50 µg/ml
Protocol: as §1, §2, §3

Mouse Id3: Histidine [15] = target: T6, Mouse Id3: Histidine; test: as above
Protocol: as §1, §2, §3

B1: rabbit monoclonal anti-mouse/human Id3, clone #BCH-4/#6-1 (antibody, V domains shown)
VH: QSVEESGGRLVTPGTPLTLTCTASGFSLSNVYIHWVRQAPGKGLEWIGYISDGDTARYATWAKGRFTISKTSSTTVNLKMTSLTTEDTATYFCARQGFNIWGPGTLVTVSL
VL: AVLTQTPSPVSAAVGGTVSISCQSSQSVWNNNWLSWFQQKPGQPPKLLIYETSKLESGVPSRFKGSGSGTQFTLTISDVQCDDAATYYCLGGYWTTSDNNVFGGGTEVVVK
notes: Rabbit IgG from a rabbit hybridoma; also called m/h Id3 MoAb 6-1
How did the A450 (Mouse Id1: Histidine [1]) turn out when B1 was run?
The A450 was 1.96 A450.

What about the A450 (Human Id3: Histidine [2]) of the same binder?
Its A450 is 2.69 A450.

What about the A450 (Mouse Id2: Histidine [3]) of the same binder?
Its A450 is 2.44 A450.

What about the A450 (Human Id1: Histidine [4]) of the same binder?
The A450 was 2.12 A450.

What about the A450 (Human Id2: Histidine [5]) of the same binder?
Its A450 is 2.54 A450.

What about the A450 (Mouse Id3: Histidine [6]) of the same binder?
The A450 was 2.81 A450.

What about the A450 (Mouse Id1: Histidine [7]) of the same binder?
The A450 was 0.093 A450.

What about the A450 (Human Id3: Histidine [8]) of the same binder?
Its A450 is 1.52 A450.

What about the A450 (Mouse Id2: Histidine [9]) of the same binder?
Its A450 is 0.093 A450.

What about the A450 (Human Id1: Histidine [10]) of the same binder?
The A450 was 0.091 A450.

What about the A450 (Human Id2: Histidine [11]) of the same binder?
Its A450 is 0.086 A450.

What about the A450 (Mouse Id3: Histidine [12]) of the same binder?
Its A450 is 1.72 A450.

What about the A450 (Mouse Id2: Histidine [13]) of the same binder?
The A450 was 0.058 A450.

And the A450 (Human Id1: Histidine [14])?
The A450 was 2.13 A450.

What about the A450 (Mouse Id3: Histidine [15]) of the same binder?
The A450 was 3.18 A450.
